Experimental data as given in US20080227700A1, “Compositions and Methods for Treatment of Protein Misfolding and Protein Aggregation Diseases” (priority 2004, published 2008).

Columns and labels:
[1] = as provided by manufacturer (Mimotopes); cited from earlier work
amyloid beta (1-42) = amyloid beta (1-42) (Homo sapiens, UniProt P05067); assay: Cu+++-induced aggregation of amyloid-beta (1-42) in vitro, light scattering; type: biochemical; details: 100 mM Cu+++, 360 nm; for preventing the Cu+++-induced aggregation of amyloid-beta: 1:1 and 1:10 molar ratio of amyloid-beta to peptide; for preventing the Cu+++ induced aggregation of amyloid-beta: 10:1 molar ratio of amyloid-beta to peptide
Description: In vitro assays were also performed to measure the ability of the human αB crystallin derived peptides identified in Example 1 to inhibit aggregation of Cu^+++-induced amyloid beta (1-42) aggregation. Aggregation assays were performed using routine procedures, in the presence or absence of a synthesized peptide identified in Example 1, in the presence of 100 mM Cu^+++. Aggregation was measured spectrophotometrically as light scattering at a wavelength of 360 nm. Aggregated amyloid-beta was assigned a value of 100% aggregation and used to normalize aggregation in the presence of synthesize peptides.
Aggregation was measured spectrophotometrically as light scattering at a wavelength of 360 nm. Aggregated amyloid-beta was assigned a value of 100% aggregation and used to normalize aggregation in the presence of synthesize peptides. Aggregation was plotted as a bar graph with the standard error for duplicate experiments. The 1st vertical bar is the scattering measured for aggregated amyloid-beta (100% aggregation) in the presence of 100 mM Cu^+++. The 2nd-4th vertical bars is the scattering from amyloid-beta in the presence of wild type recombinant human αB crystallin. The 5th-13th vertical bars are the scattering of amyloid-beta in the presence of the synthetic peptides, DRFSVNLDVKHFS or LTITSSLSDGV or HGKHEERQDE at selected concentrations. A prefix of 10× represents a 10:1 molar concentration of amyloid-beta to either wild type αB crystallin or its peptides. A prefix of 1X represents a 1:1 molar concentration of amyloid-beta to either wt αB crystallin or its peptides. A prefix of 0.1× represents a 1:10 molar concentration of amyloid-beta to either wt αB crystallin or its peptides.

βH crystallin = assay: Chaperone assay, thermal aggregation of βH crystallin; type: biochemical; details: 50:1 molar ratio of peptide:βH crystallin; 50° C., sixty minutes; light scattering λ=340 nm; no peptide = 0% protection
Description: (§1) The chaperone activity of the peptides was measured as their ability to protect against the thermal aggregation of three chaperone target proteins βH crystallin, ADH and CS in chaperone assays performed at 50° C. (FIG. 19). A non-interactive αB crystallin sequence 111HGKHEERQDE120 was used as the negative control in the chaperone assays (FIG. 19). Based on near and far UVCD, the three target proteins unfolded in the order: CS>>>ADH>>βH crystallin when they were heated at 50° C. for sixty minutes (FIGS. 15 and 16). The thermal aggregation of βH crystallin, ADH and CS was measured as light scattering at λ=340 nm in the presence and absence of each peptide. The chaperone activity of each peptide was calculated as percent protection in which the aggregation of each target protein in the absence of any peptides was set at 0% protection (FIG. 19). The interactive peptides 73DRFSVNLDVKHFS85 and 131LTITSSLSDGV141 were effective inhibitors of aggregation of all three chaperone target proteins.
(§2) A (top left): thermal aggregation of chaperone target proteins βH crystallin, ADH and CS in the absence of peptides was measured as light scattering at λ=340 nm. Each target protein was heated at 50° C. for sixty minutes in the absence or presence of one of the peptides. […] The chaperone activity of each peptide was calculated as percent protection in which the aggregation of each target protein in the absence of any peptides was set at 0% protection. The ability of the 73DRFSVNLDVKHFS85, 131LTITSSLSDGV141 and 111HGKHEERQDE120 to protect against the thermal aggregation of βH crystallin (B: top right), ADH (C: bottom left) and CS (D: bottom right) were tested in vitro (vertical bars). […] A 10:1 molar ratio of peptide:target protein was sufficient in conferring significant protection against the aggregation of CS by 73DRFSVNLDVKHFS85 and 131LTITSSLSDGV141.

ADH = molecular target: T1, ADH (Equus caballus, UniProt P00327); assay: Chaperone assay, thermal aggregation of ADH; type: biochemical; details: 50:1 molar ratio of peptide:ADH; 50° C., sixty minutes; light scattering λ=340 nm; no peptide = 0% protection
T1 construct: purchased
T1 sequence (P00327 whole entry): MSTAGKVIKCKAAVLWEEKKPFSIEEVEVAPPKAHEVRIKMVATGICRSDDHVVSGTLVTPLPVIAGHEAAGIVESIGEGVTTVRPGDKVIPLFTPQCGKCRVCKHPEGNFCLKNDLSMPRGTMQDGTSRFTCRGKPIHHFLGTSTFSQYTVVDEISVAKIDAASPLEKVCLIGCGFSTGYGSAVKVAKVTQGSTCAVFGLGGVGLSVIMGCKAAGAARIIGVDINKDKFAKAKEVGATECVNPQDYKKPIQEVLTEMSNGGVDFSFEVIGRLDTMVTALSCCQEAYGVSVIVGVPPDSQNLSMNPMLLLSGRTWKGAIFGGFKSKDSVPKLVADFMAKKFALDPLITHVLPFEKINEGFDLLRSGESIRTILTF
Description: as §1, §2

Aβ = Aβ (Homo sapiens, UniProt P05067); assay: Aβ ThioflavinT fluorescence (fibrillization of Aβ); type: biochemical; details: 1:10 Aβ:peptide; for effect on the fibrillization of Aβ: ThioflavinT fluorescence after 72 hrs, comparison among αB crystallin and five peptides
Description: Aβ Thioflaviin T fluorescence. Aβ fibrils were grown in the presence and absence of αB crystallin and peptides in conditions similar to that previously described for the presence of αB crystallin. Bakthisaran et al., Biochem J, 2005. Peptides were dissolved to 9.1 mM in trifluorethanol (TFE) and diluted to 0.91 mM stock solutions in 50 mM PBS, 100 mM NaCl, pH 7.4. 3.5 mg of ThioflavinT was dissolved in 100 μl of 50 mM Glycine pH 8.5. A stock solution of 1 mg/ml (0.22 mM) Aβ was prepared. 20 μl Aβ, 50 μl chaperone, 2 μl ThioflavinT was mixed with 28 μl 50 mM PBS, 100 mM NaCl, pH 7.4. Fluorescence was read using a Beckman Coultier DTX 880 multimode detector. Samples were heated at 50° C. for 72 hours and fluorescence was read again.
(§3) The fibrillization of Aβ was measured as fluorescence of the fluorescent dye ThioflavinT from solutions containing 1:10 monomeric molar ratio of Aβ:peptide. In the absence of Aβfibrils, ThioflavinT had little or no fluorescence. The fluorescence of the ThioflavinT bound to Aβ fibrils in the absence of any other molecule after 72 hrs was set to 100%. […] Fibril formation=ΔfluorescenceAβ (with chaperone)*100/ΔfluorescenceAβ (without chaperone).

γD crystallin = molecular target: T2, γD crystallin (Homo sapiens, UniProt P07320); assay: γD crystallin ThioflavinT fluorescence (fibrillization of γD crystallin); type: biochemical; details: ThioflavinT; 50° C. for 72 hours; 1:1 γD crystallin:peptide; no chaperone 888,803,840
T2 sequence (P07320 1-174): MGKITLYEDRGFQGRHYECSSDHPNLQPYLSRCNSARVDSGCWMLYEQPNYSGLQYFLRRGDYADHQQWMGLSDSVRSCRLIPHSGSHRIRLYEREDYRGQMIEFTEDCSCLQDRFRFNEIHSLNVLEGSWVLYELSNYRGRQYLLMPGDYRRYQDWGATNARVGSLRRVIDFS
Description: γD crystallin Thioflaviin T fluorescence. γD crystallin fibrils were formed in a similar way to that of γ crystalline. Meehan et al., J Biol Chem 279: 3413-3419, 2004. Peptides were dissolved to […] IN tfe AND DILUTED to 0.91 mM stock solutions in 10% TFE, pH 2.0.
3.5 mg of ThioflavinT was dissolved in 100 μL of 50 mM Glycine pH 8.5. A stock solution of 1 mg/ml (0.22 mM) Aβ was prepared. 20 μl Aβ, 5 μl chaperone, 2 μl ThioflavinT was mixed with 73 μL 10% TFE, pH 2.0. Fluorescence was read using a Beckman Coultier DTX 880 multimode detector. Samples were heated at 50° C. for 72 hours and fluorescence was read again.
as §3, with “γD crystallin” for “Aβ”, “1:1” for “1:10”, “γD crystallin:peptide.” for “Aβ:peptide.”, “fibrils” for “Aβfibrils,”, “formation=ΔfluorescenceγD crystallin” for “formation=ΔfluorescenceAβ”, “chaperone)*100/ΔfluorescenceγD crystallin” for “chaperone)*100/ΔfluorescenceAβ”

βL crystallin = assay: Chaperone assay, thermal aggregation of βL crystallin; type: biochemical; details: light scattering at λ=340 nm; 1:10 target protein:peptide; comparison among five peptides
Description: Chaperone Assays. Chaperone assays of the five peptides were performed using previously established methods with minor modifications. Muchowski et al., J Mol Biol 289: 397-411, 1999. A 1:1 monomeric molar ratio of chaperone: target protein was determined to be the optimum ratio and all subsequent chaperone assays of the β3 mutants were performed in triplicate and at a 1:1 monomeric molar ratio of chaperone: target protein in a 96-well ELISA micro-titer plate. […] of the chaperone and βL crystallin were mixed in a total volume of 200 μL buffer (5 mM PBS, pH 7.0). Light scattering at λ=340 nm was measured using a Multiskan MCC/340 plate reader before heating (time=0). After the first reading, the plate was heated at 50° C. and readings were taken at fifteen minute intervals for one hour.
The ability of the peptides to suppress the thermal aggregation of βL crystallin was measured spectrophotometrically as light scattering at λ=340 nm from solutions containing 1:10 monomeric molar ratio of target protein: peptide.

CS = molecular target: T3, CS (Sus scrofa, UniProt P00889); assay: Chaperone assay, thermal aggregation of CS; type: biochemical; details: 10:1 molar ratio of peptide:CS; 50° C., sixty minutes; light scattering λ=340 nm; no peptide = 0% protection
T3 construct: purchased
T3 sequence (P00889 28-464): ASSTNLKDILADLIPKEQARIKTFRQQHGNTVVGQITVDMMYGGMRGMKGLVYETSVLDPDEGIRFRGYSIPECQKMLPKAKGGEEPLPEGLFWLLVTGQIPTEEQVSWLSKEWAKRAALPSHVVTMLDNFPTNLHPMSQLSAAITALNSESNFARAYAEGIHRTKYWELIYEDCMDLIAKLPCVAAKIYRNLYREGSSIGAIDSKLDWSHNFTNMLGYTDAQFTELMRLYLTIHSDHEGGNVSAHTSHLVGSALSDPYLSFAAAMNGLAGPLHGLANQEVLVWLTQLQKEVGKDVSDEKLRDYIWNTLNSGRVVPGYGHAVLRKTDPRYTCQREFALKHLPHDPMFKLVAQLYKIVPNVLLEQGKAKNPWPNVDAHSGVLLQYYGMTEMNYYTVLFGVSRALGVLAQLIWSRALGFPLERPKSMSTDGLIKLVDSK
Description: as §1
A (top left): thermal aggregation of chaperone target proteins βH crystallin, ADH and CS in the absence of peptides was measured as light scattering at λ=340 nm. […] The chaperone activity of each peptide was calculated as percent protection in which the aggregation of each target protein in the absence of any peptides was set at 0% protection. […]

Sequence | Hydrophobicity [1] | preventing the Cu+++-induced aggregation of amyloid-beta (amyloid beta (1-42)) | preventing the Cu+++ induced aggregation of amyloid-beta (amyloid beta (1-42)) | percent protection against thermal aggregation of βH crystallin (βH crystallin) | percent protection against thermal aggregation of ADH (ADH) | Δfluorescence (Aβ) (Aβ; ThioflavinT, 50° C. for 72 hours, no chaperone 1,324,974,048) | Δfluorescence (γD crystallin) (γD crystallin) | effect on the thermal aggregation of βL crystallin (chaperone activity) (βL crystallin) | percent protection against thermal aggregation of CS (CS) | effect on the fibrillization of Aβ (Aβ)
HFSPEELK [Peptide 42] | 0.25 | – | – | – | – | – | – | – | – | –
LTITSSLSDGV | – | equally effective | less effective | approximately 30% | approximately 30% | 352,301,312 | 675,352,992 | slightly lower than the HG peptide | – | –
HGKHEERQDE | – | equally effective | less effective | No protection | No protection | – | – | strongest effect | partial protection | weakest effect
DRFSVNLDVKHFS | – | equally effective | less effective | approximately 30% | approximately 30% | – | – | slightly lower than the HG peptide | – | strongest effect
